B1: IM30 α1-3 (domain or fragment, Synechocystis, UniProt Q55707 26-156, looked up)
chain: EKVLEQAVIDMQEDLVQLRQAVARTIAEEKRTEQRLNQDTQEAKKWEDRAKLALTNGEENLAREALARKKSLTDTAAAYQTQLAQQRTMSENLRRNLAALEAKISEAKTKKNMLQARAKAAKANAELQQTL
notes: IM30 (Vipp1) of Synechocystis, helical hairpin α1-3, residues 26-156 (printed for the α1-3 fragment in the simulation); calculated mass about 17.5 kDa; also called IM30 αH1-3; α1-3 helical hairpin; not shown: His10, N-terminal, kept
B2: IM30 wt (inner membrane-associated protein of 30 kDa) (natural protein, Synechocystis, UniProt Q55707 1-267, looked up)
chain: MGLFDRLGRVVRANLNDLVSKAEDPEKVLEQAVIDMQEDLVQLRQAVARTIAEEKRTEQRLNQDTQEAKKWEDRAKLALTNGEENLAREALARKKSLTDTAAAYQTQLAQQRTMSENLRRNLAALEAKISEAKTKKNMLQARAKAAKANAELQQTLGGLGTSSATSAFERMENKVLDMEATSQAAGELAGFGIENQFAQLEASSGVEDELAALKASMAGGALPGTSAATPQLEAAPVDSSVPANNASQDDAVIDQELDDLRRRLNNL
notes: IM30 (Vipp1) of Synechocystis, full-length wild type; calculated MW 31.7 kDa with tag; Forms homo-oligomeric barrels and rods of several MDa; the number of subunits was not measured here; also called wt IM30; Vipp1

Tests used:
[1] = target: the molecule itself; test: cross-linking; BS3 (285 μM), 5.7 μM protein incubated 2 h with DOPG liposomes of increasing concentrations, 25°C, SDS-PAGE; self-association
[2] = target: the molecule itself; test: SEC; Superose 12 10/300, 20 mM HEPES, 100 mM NaCl, pH 7.6, 7°C, 0.5 mL/min; self-association of the purified variant

Row | Protein | binding result [1] | binding result [2]
1 | B1 | binds | 
2 | B2 |  | binds
